From PMC8830681, “Circadian control of heparan sulfate levels times phagocytosis of amyloid beta aggregates” (PLoS Genetics, 2022)
Ends that are not written are not given here.

B1: Heparinase I: Recombinant Flavobacterial heparin lyase I; cleaves in highly sulfated regions of HSPGs (protein, UniProt Q05819 22-384, looked up)
Heparin lyase I: QQKKSGNIPYRVNVQADSAKQKAIIDNKWVAVGINKPYALQYDDKLRFNGKPSYRFELKAEDNSLEGYAAGETKGRTELSYSYATTNDFKKFPPSVYQNAQKLKTVYHYGKGICEQGSSRSYTFSVYIPSSFPDNATTIFAQWHGAPSRTLVATPEGEIKTLSIEEFLALYDRMIFKKNIAHDKVEKKDKDGKITYVAGKPNGWKVEQGGYPTLAFGFSKGYFYIKANSDRQWLTDKADRNNANPENSEVMKPYSSEYKTSTIAYKMPFAQFPKDCWITFDVAIDWTKYGKEANTILKPGKLDVMMTYTKNKKPQKAHIVNQQEILIGRNDDDGYYFKFGIYRVGNSTVPVTYNLSGYSETAR
B2: Heparinase II: Recombinant Flavobacterial heparin lyase II; cleaves in both high- and low-sulfated positions (protein, UniProt C6XZB6 26-772, looked up)
Heparin and heparin-sulfate …: QTKADVVWKDVDGVSMPIPPKTHPRLYLREQQVPDLKNRMNDPKLKKVWADMIKMQEDWKPADIPEVKDFRFYFNQKGLTVRVELMALNYLMTKDPKVGREAITSIIDTLETATFKPAGDISRGIGLFMVTGAIVYDWCYDQLKPEEKTRFVKAFVRLAKMLECGYPPVKDKSIVGHASEWMIMRDLLSVGIAIYDEFPEMYNLAAGRFFKEHLVARNWFYPSHNYHQGMSYLNVRFTNDLFALWILDRMGAGNVFNPGQQFILYDAIYKRRPDGQILAGGDVDYSRKKPKYYTMPALLAGSYYKDEYLNYEFLKDPNVEPHCKLFEFLWRDTQLGSRKPDDLPLSRYSGSPFGWMIARTGWGPESVIAEMKVNEYSFLNHQHQDAGAFQIYYKGPLAIDAGSYTGSSGGYNSPHNKNFFKRTIAHNSLLIYDPKETFSSSGYGGSDHTDFAANDGGQRLPGKGWIAPRDLKEMLAGDFRTGKILAQGFGPDNQTPDYTYLKGDITAAYSAKVKEVKRSFLFLNLKDAKVPAAMIVFDKVVASNPDFKKFWLLHSIEQPEIKGNQITIKRTKNGDSGMLVNTALLPDAANSNITSIGGKGKDFWVFGTNYTNDPKPGTDEALERGEWRVEITPKKAAAEDYYLNVIQIADNTQQKLHEVKRIDGDKVVGVQLADRIVTFSKTSETVDRPFGFSVVGKGTFKFVMTDLLPGTWQVLKDGKILYPALSAKGDDGALYFEGTEGTYRFLR
B3: Heparinase III: Recombinant Flavobacterial heparin lyase III; cleaves in low or unsulfated regions of HSPGs (protein, UniProt Q59289 25-659, looked up)
Heparin-sulfate lyase: QSSSITRKDFDHINLEYSGLEKVNKAVAAGNYDDAAKALLAYYREKSKAREPDFSNAEKPADIRQPIDKVTREMADKALVHQFQPHKGYGYFDYGKDINWQMWPVKDNEVRWQLHRVKWWQAMALVYHATGDEKYAREWVYQYSDWARKNPLGLSQDNDKFVWRPLEVSDRVQSLPPTFSLFVNSPAFTPAFLMEFLNSYHQQADYLSTHYAEQGNHRLFEAQRNLFAGVSFPEFKDSPRWRQTGISVLNTEIKKQVYADGMQFELSPIYHVAAIDIFLKAYGSAKRVNLEKEFPQSYVQTVENMIMALISISLPDYNTPMFGDSWITDKNFRMAQFASWARVFPANQAIKYFATDGKQGKAPNFLSKALSNAGFYTFRSGWDKNATVMVLKASPPGEFHAQPDNGTFELFIKGRNFTPDAGVFVYSGDEAIMKLRNWYRQTRIHSTLTLDNQNMVITKARQNKWETGNNLDVLTYTNPSYPNLDHQRSVLFINKKYFLVIDRAIGEATGNLGVHWQLKEDSNPVFDKTKNRVYTTYRDGNNLMIQSLNADRTSLNEEEGKVSYVYNKELKRPAFVFEKPKKNAGTQNFVSIVYPYDGQKAPEISIRENKGNDFEKGKLNLTLTINGKQQLVLVP

What was measured:
[1] = test system: bone-marrow derived macrophages (BMDMs) from Per2::Luc C57BL/6J mice; assay: Phagocytosis assay of HiLyte 488 labeled amyloid-beta by serum-shock synchronized macrophages (with or without heparinases); assay type: cell-based, mouse; details: for circadian oscillation of the peptide's own phagocytosis (in words): HiLyte 488 labeled peptide, 2 h uptake, mAβ42 every 4 h for 24 h (ECHO), Aβ40 at PS20 and PS32; for Hedges' g, phagocytosis PS20 vs PS32 within the same treatment: for heparinases: Aβ42 phagocytosis in their presence; for Hedges' g, phagocytosis vs Aβ42-alone at PS20 (nadir, CT8) / Hedges' g, phagocytosis vs Aβ42-alone at PS32 (zenith, CT20): >100 cells per replicate, g >0.2 small, >0.5 medium, >0.8 large effect; for effect of heparinase treatment on the daily oscillation of Aβ42 phagocytosis (in words): heparinase added immediately before HiLyte 488 Aβ42, cells sampled 2 h later
Excerpt: To do so, we modified a previously-employed BMDM phagocytosis assay (as BMDMs are both models for activated microglia and are known to migrate into the brain in late-stage AD), to use fluorescently labeled Aβ42 to determine if the phagocytosis of Aβ42 is controlled by the circadian clock. In brief, BMDMs were derived from bone marrow progenitor cells extracted from Per2::Luc C57BL/6J mice and differentiated with recombinant Macrophage Colony Stimulating Factor (M-CSF), with flow cytometry confirming complete differentiation into naïve peripheral macrophages. […] 16 h after synchronization, confluent dishes of these BMDMs were treated HiLyte 488 labeled Aβ42 (Anaspec), in triplicate, every 4 h over a 24 h circadian period. BMDMs treated with labeled Aβ42 were harvested two hours after Aβ42 treatment and fixed with formalin. Total cellular fluorescence levels were analyzed with fluorescent confocal microscopy and quantified using a custom cell measurement MATLAB script (Fig 1A, S2 Fig, and S1 Table).
Bone marrow was harvested from the femurs and tibias of one 3–6-month-old male mouse using a 26 g needle and syringe filled with DMEM supplemented media. ACK lysing buffer (Lonza 10-548E) was used to lyse red blood cells in order to prevent erythrocyte contamination. Filtered bone marrow cells were counted using a BioRad TC20 automated cell counter and plated on 35 mm cell culture plates at a density of 1 x 10^6 in macrophage differentiation media. After three days of incubation at 37°C with 5% CO2, fresh macrophage differentiation media was added. After another 3 days of incubation, the cells were washed with 2 ml warm PBS per plate, and replaced with macrophage assay media, and the cultures were incubated for 24 h. Macrophage cultures were then washed with 2 ml warm PBS, macrophage serum starvation media was added, and the plates were incubated in the starve media for 24 h. Next, macrophage serum starvation media was removed, and macrophage serum shock media was added, and cultures were incubated for 2 h. Macrophage cultures were then washed with 2 ml warmed PBS each and macrophage media Luciferin was added. Cultures were sealed with grease and glass cover slips and placed in a LumiCycle 32 luminometer (Actimetrics) to confirm synchronization of circadian rhythmicity. Assays began 16 h post serum shock to allow the synchronized cells to return to homeostasis.
All amyloid-beta isoforms were reconstituted 24 h or less before experimentation in water and PBS (1:1) and were dissolved using sonication for approximately 30 min. The reconstituted Aβ was pooled from individual vials before aliquoting for each experimental replicate. The aliquots were then flash frozen and stored at -80°C until 20 min before use.
Using synchronized macrophages (as described above) starting at PS16 macrophages were treated every 4 h for 24 h, in triplicate, with 115 μl (0.25 mg/ml) of fluorescently labeled amyloid-beta (PS16, PS20, PS24, PS28, PS32, PS36, and PS40) and heparinases at the reported activity levels (S5 Table). The treated macrophages were then incubated at 37°C for 2 h. Following the two-hour incubation, the media was aspirated, and the macrophages were washed with 2ml of PBS three times before Cell Stripper (Corning 25-056-CI) was added to the cultures, which were then incubated at 37°C for 3 min. Detached macrophages were next centrifuged at 400 g for 5 min, the supernatant was aspirated, and the macrophage cell pellets were resuspended in formalin and incubated in the dark at room temperature for 30 min. Macrophages were then centrifuged for 5 min at 400 g, the supernatant was aspirated, and the macrophages were resuspended in 250 μL of PBS and kept at 4°C. The fixed macrophages were imaged using fluorescent microscopy within a week of the experiment. All fluorescent images from the phagocytosis experiments are available on Mendeley Data (doi: 10.17632/zrmgjyggmr.1). […]

[2] = Heparinase enzymatic activity; assay type: biochemical
Excerpt: We hypothesized that the rhythmic oscillation of HSPGs may inhibit the phagocytosis of Aβ42 due to the antiphase relationship between Aβ42 phagocytosis and PG levels and the published repressive effect of HSPGs on Aβ42 phagocytosis (Figs 1 and 4). To validate this hypothesis, we individually purified Heparinases I, II, and III, removed endotoxins, and confirmed Heparinase enzymatic activity (see Methods) (S5 Table). Heparinase I cleaves between D-glucosamine and L-iduronic acid in highly sulfated regions, heparinase III cleaves between N-acetyl-D-glucosamine in low or unsulfated regions, and heparinase II cleaves in both positions. We then extracted, derived, synchronized, and exposed BMDMs to fluorescently-labeled Aβ42 every 4 h over one circadian day. We next added a mixture of Heparinase I, II, and III to cleave all forms of HSPGs, with each biological replicate receiving a decreasing concentration of total heparinases (Replicate 1: 0.9577mg/ml of total heparinases, Replicate 2: 0.5071 mg/ml of total heparinases, Replicate 3: 0.2794 mg/ml of total heparinases) of the mixture of the three heparinases (see S5 Table). Immediately following the addition of the heparinases, we added fluorescently labeled Aβ42 and sampled Aβ42 levels inside the cell 2 hours later. By using fluorescently labeled Aβ42, we controlled for endogenously generated Aβ, which can be affected by HSPG expression through its interaction with BACE1 processing of the amyloid precursor protein [67].
Heparinases were prepared as has been previously reported. All heparinases used were purified away from endotoxins using an Endotoxin Removal Kit from GenScript (L00338).

[3] = log10 mean cell fluorescence, triplicate
[4] = heparinase stock of the 'All Hep' experiment
[5] = heparinase stock of the 'Hep I only' / 'Hep III only' experiments

Molecule | circadian oscillation of the peptide's own phagocytosis (in words) ([1]; triplicate) | Hedges' g, total phagocytosis of Aβ40 vs Aβ42 at PS20 and PS32 [1, 3] | Hedges' g, phagocytosis PS20 vs PS32 within the same treatment [1, 3] | Oscillation Type ([1]; ECHO v4.1 fit, average of 3 replicates, log10 mean cell fluorescence, 2 h uptake every 4 h PS16-PS40, WT Per2::Luc BMDMs) | phagocytosis compared to human Aβ42 (in words) ([1]; every 4 h for 24 h, triplicate) | Hedges' g, phagocytosis vs Aβ42-alone at PS20 (nadir, CT8) [1, 3] | Hedges' g, phagocytosis vs Aβ42-alone at PS32 (zenith, CT20) [1, 3] | Activities (U/ml) [2, 4] [U/ml] | Activities (U/ml) [2, 5] [U/ml] | effect of heparinase treatment on the daily oscillation of Aβ42 phagocytosis (in words) ([1]; triplicate)
Amyloid-beta 40 labeled with HiLyte 488 [Aβ40] | no oscillation in Aβ40 phagocytosis | 0.2752 | 0.06734 | – | – | – | – | – | – | –
Mouse amyloid-beta 42 labeled with HiLyte 488 (DAEFGHDSGFEVRHQKLVFFAEDVGSNKGAIIGLMVGGVVIA; also: HiLyte 488 label, site not given here; UniProt P12023 672-713, looked up) [mAβ42, custom mouse Aβ42 labeled with HiLyte 488 from Anaspec (SQ-ANCPXXXX)] | did not have a circadian oscillation | – | – | Harmonic | increased phagocytosis compared to human Aβ42 phagocytosis at all sampled times | 3.032 | 2.021 | – | – | –
B1 | – | – | 0.1017 | – | – | 0.1328 | 0.635 | 0.034 | 0.332 | loss of daily oscillation
B2 | – | – | – | – | – | – | – | 1.048 | – | –
B3 | – | – | 0.1663 | – | – | 0.5409 | 0.22 | 20.212 | 5.305 | oscillations in Aβ42 phagocytosis were also ablated
